This note sets out measurements from PMC6527160.

Series [1] concerns the target T1, LASV L protein Strep407 (Lassa virus Bantou 289, UniProt A0A3S8NV63 1-2217). The series is described as follows: EMSA; 0-1 uM L, 0.6 uM RNA; 4 mM Mg2+; […]) pH 7.0, 150 mM NaCl ([…]. As to conditions: protein: recombinant; tags: internal StrepII-tag inserted after residue 407; chain copies: 2; label: 32P (5' end, T4 PNK); single strand. For orientation: A gel shift assay detects complexes by their altered migration in electrophoresis.

Series [2] deals with T1, LASV L protein Strep407. The series is described as follows: EMSA; […]) pH 7.0, 150 mM NaCl ([…]. As to conditions: protein: recombinant; tags: internal StrepII-tag inserted after residue 407; chain copies: 2; label: 32P (5' end, T4 PNK); single strand.

Take CGCACCGGGGAUCCUAGGC (ssRNA) [vRNA 5']: the binding result in the series with LASV L protein Strep407 [1] is listed as “binds”. Take GCGCACCGGGGAUCCUAGGC (ssRNA) [vRNA 5'G]: the binding result in the series with LASV L protein Strep407 [2] is “binds”.
